Experimental data: paper PMC9680732

Biological target: singly biotinylated A20 zinc finger 4 (ZnF4: S592-K635) (human) (UniProt P21580)
Assay: BLI

singly biotinylated A20 zinc finger 4 (ZnF4: S592-K635) (human), sequence (P21580 592-635): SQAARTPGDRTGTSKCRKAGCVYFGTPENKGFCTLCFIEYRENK

## K63-linked triubiquitin (from UniProt P0CG48 1-76)
  Kd: 2000 nM
